Measured values: article PMC7525818 (Molecular Biology of the Cell, 2020)

Target: the molecule itself
Test: cross-linking

B1: recombinant full-length human villin (GST tag cleaved) (natural protein, UniProt P09327 1-827, looked up)
chain: MTKLSAQVKGSLNITTPGLQIWRIEAMQMVPVPSSTFGSFFDGDCYIILAIHKTASSLSYDIHYWIGQDSSLDEQGAAAIYTTQMDDFLKGRAVQHREVQGNESEAFRGYFKQGLVIRKGGVASGMKHVETNSYDVQRLLHVKGKRNVVAGEVEMSWKSFNRGDVFLLDLGKLIIQWNGPESTRMERLRGMTLAKEIRDQERGGRTYVGVVDGENELASPKLMEVMNHVLGKRRELKAAVPDTVVEPALKAALKLYHVSDSEGNLVVREVATRPLTQDLLSHEDCYILDQGGLKIYVWKGKKANEQEKKGAMSHALNFIKAKQYPPSTQVEVQNDGAESAVFQQLFQKWTASNRTSGLGKTHTVGSVAKVEQVKFDATSMHVKPQVAAQQKMVDDGSGEVQVWRIENLELVPVDSKWLGHFYGGDCYLLLYTYLIGEKQHYLLYVWQGSQASQDEITASAYQAVILDQKYNGEPVQIRVPMGKEPPHLMSIFKGRMVVYQGGTSRTNNLETGPSTRLFQVQGTGANNTKAFEVPARANFLNSNDVFVLKTQSCCYLWCGKGCSGDEREMAKMVADTISRTEKQVVVEGQEPANFWMALGGKAPYANTKRLQEENLVITPRLFECSNKTGRFLATEIPDFNQDDLEEDDVFLLDVWDQVFFWIGKHANEEEKKAAATTAQEYLKTHPSGRDPETPIIVVKQGHEPPTFTGWFLAWDPFKWSNTKSYEDLKAELGNSRDWSQITAEVTSPKVDVFNANSNLSSGPLPIFPLEQLVNKPVEELPEGVDPSRKEEHLSIEDFTQAFGMTPAAFSALPRWKQQNLKKEKGLF
B1 was tested, and the “stoichiometry N” value was 2.

B2: recombinant full-length human advillin (GST tag cleaved) (natural protein, UniProt O75366 1-819, looked up)
chain: MPLTSAFRAVDNDPGIIVWRIEKMELALVPVSAHGNFYEGDCYVILSTRRVASLLSQDIHFWIGKDSSQDEQSCAAIYTTQLDDYLGGSPVQHREVQYHESDTFRGYFKQGIIYKQGGVASGMKHVETNTYDVKRLLHVKGKRNIRATEVEMSWDSFNRGDVFLLDLGKVIIQWNGPESNSGERLKAMLLAKDIRDRERGGRAKIGVIEGDKEAASPELMKVLQDTLGRRSIIKPTVPDEIIDQKQKSTIMLYHISDSAGQLAVTEVATRPLVQDLLNHDDCYILDQSGTKIYVWKGKGATKAEKQAAMSKALGFIKMKSYPSSTNVETVNDGAESAMFKQLFQKWSVKDQTMGLGKTFSIGKIAKVFQDKFDVTLLHTKPEVAAQERMVDDGNGKVEVWRIENLELVPVEYQWYGFFYGGDCYLVLYTYEVNGKPHHILYIWQGRHASQDELAASAYQAVEVDRQFDGAAVQVRVRMGTEPRHFMAIFKGKLVIFEGGTSRKGNAEPDPPVRLFQIHGNDKSNTKAVEVPAFASSLNSNDVFLLRTQAEHYLWYGKGSSGDERAMAKELASLLCDGSENTVAEGQEPAEFWDLLGGKTPYANDKRLQQEILDVQSRLFECSNKTGQFVVTEITDFTQDDLNPTDVMLLDTWDQVFLWIGAEANATEKESALATAQQYLHTHPSGRDPDTPILIIKQGFEPPIFTGWFLAWDPNIWSAGKTYEQLKEELGDAAAIMRITADMKNATLSLNSNDSEPKYYPIAVLLKNQNQELPEDVNPAKKENYLSEQDFVSVFGITRGQFAALPGWKQLQMKKEKGLF
B2: binds.
